Consider 1 molecule from PMC6294249, “CryoEM reveals how the complement membrane attack complex ruptures lipid bilayers” (Nature Communications, 2018).

For test [1], the target named is T1, complement C8 alpha chain (human, UniProt P07357 31-584, N-linked glycan at N407).
T1 construct: complement component C8 alpha chain, human; It stood in the assay as one chain of the bought C8 heterotrimer (α, β, γ); also called C8α; source: bought: Complement Technology (as C8)
Briefly: cryo-EM structure; human MAC assembled on DOPC:DOPE liposomes by sequential addition of C5b6, C7, C8 and C9 (molar ratio 1:1:1:18, 1 h at 37 °C, then 4 °C overnight; 20 mM HEPES-NaOH, 150 mM NaCl, pH 7.4), solubilised in Cymal-5, purified by sucrose density centrifugation; open and closed conformations separated by 3D classification. To be noted: both partners purified.

The next test has as its target T2, complement C6 (human, UniProt P13671 22-934).
T2 construct: complement component C6, human; 10 domains (TSP1, TSP2, LDL, MACPF, EGF, TSP3, CCP1, CCP2, FIM1, FIM2); It stood in the assay as part of the bought C5b6 complex; FIM1 and FIM2 were left out of the atomic model (weak or no density); source: bought: Complement Technology (as the C5b6 complex)
The test is described as above. The following applies: both partners purified.

T2 sequence (P13671 22-934): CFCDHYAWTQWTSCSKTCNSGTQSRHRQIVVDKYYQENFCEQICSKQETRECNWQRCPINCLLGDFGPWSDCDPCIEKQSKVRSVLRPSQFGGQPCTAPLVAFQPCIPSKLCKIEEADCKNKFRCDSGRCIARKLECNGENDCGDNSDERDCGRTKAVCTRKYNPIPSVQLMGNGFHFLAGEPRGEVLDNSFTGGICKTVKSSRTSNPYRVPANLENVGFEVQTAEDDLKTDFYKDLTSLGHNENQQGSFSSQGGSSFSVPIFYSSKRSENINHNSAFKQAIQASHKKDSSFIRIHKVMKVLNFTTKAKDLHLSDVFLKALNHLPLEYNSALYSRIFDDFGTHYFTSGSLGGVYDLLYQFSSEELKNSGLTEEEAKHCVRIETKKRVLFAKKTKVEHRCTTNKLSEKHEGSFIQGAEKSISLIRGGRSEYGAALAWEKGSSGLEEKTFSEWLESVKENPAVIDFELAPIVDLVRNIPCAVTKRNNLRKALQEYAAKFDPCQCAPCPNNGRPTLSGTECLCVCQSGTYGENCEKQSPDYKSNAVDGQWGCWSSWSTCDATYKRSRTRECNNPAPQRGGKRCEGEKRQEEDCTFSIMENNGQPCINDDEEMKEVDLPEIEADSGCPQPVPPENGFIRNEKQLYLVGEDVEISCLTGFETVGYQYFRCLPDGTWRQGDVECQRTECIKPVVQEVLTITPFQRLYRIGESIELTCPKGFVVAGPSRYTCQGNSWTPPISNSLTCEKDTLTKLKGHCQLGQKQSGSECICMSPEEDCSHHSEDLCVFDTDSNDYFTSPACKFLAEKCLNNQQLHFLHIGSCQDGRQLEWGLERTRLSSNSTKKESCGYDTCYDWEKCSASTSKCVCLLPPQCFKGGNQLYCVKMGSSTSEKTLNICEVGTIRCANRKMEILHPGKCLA
T1 sequence (P07357 31-584): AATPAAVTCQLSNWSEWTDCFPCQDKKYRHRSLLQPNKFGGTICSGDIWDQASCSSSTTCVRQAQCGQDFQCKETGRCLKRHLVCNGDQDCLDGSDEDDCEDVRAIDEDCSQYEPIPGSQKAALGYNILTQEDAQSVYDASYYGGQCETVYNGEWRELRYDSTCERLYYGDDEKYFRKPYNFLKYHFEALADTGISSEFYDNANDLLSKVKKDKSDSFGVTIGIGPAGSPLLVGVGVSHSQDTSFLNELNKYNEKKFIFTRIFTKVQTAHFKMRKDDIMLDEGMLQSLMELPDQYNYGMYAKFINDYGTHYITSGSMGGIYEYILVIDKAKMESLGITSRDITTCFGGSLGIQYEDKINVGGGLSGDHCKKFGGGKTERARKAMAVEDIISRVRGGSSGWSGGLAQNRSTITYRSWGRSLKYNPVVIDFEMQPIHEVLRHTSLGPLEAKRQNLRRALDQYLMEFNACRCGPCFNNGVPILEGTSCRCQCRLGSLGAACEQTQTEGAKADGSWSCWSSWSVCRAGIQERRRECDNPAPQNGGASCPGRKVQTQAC

B1: complement C9 (natural protein)
chain: not shown
modifications: N-linked glycans at N215, N256, N394; O-linked glycan at T427
notes: complement component C9, human; The model began from a homology model with C8β as template; source: bought: Complement Technology
For the molecule B1, the binding result (in test [1]; in the test with complement C6) was “binds” throughout.
